Source: US20170260508A1

Biological target: chimeric LILRB2-PILRβ receptor (aa 24-458 of hLILRB2) on mouse T cell hybridoma NFAT-GFP reporter cells (human) (UniProt Q8N423)
Assay: cell-based or functional assay

Chain of chimeric LILRB2-PILRβ receptor (aa 24-458 of hLILRB2) on mouse T cell hybridoma NFAT-GFP reporter cells (human) (Q8N423 other isoform, or with tags, fused parts or gaps mutant limits assumed, form in doubt): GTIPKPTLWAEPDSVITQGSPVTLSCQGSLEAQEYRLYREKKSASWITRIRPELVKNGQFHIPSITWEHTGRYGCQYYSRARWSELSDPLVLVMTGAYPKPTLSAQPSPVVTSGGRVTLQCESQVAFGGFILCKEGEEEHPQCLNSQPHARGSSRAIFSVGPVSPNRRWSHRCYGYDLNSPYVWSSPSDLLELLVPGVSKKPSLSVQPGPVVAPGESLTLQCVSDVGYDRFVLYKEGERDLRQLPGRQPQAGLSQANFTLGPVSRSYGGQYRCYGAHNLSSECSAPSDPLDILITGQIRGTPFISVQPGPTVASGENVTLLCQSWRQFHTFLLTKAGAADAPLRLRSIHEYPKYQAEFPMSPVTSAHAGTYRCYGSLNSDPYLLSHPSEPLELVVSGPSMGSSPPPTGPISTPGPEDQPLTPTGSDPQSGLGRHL

Substance: GST-human Angptl2, bacterially expressed (GST-Angptl2-FLAG) (from UniProt Q9UKU9 23-493) (ligand)
- GFP expression of LILRB2 reporter cells, immobilized monomeric GST-Angptl2: 20%
- GFP expression of LILRB2 reporter cells, soluble monomeric GST-Angptl2: 3.56%
- GFP induction of LILRB2 reporter cells by immobilized Angptl2, no antibody: 19.9%
